Source: patent US20220064316A1 (published 2022)

T1: human BCMA (B-cell maturation antigen) on cells (human, UniProt Q02223 1-184)
T1 sequence (looked up): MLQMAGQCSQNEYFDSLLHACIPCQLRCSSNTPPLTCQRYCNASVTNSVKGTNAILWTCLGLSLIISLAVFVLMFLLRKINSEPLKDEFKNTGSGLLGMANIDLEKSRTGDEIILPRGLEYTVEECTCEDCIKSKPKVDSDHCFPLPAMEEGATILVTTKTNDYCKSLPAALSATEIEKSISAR

T2: BCMA-Fc antigen (R&D Systems) (UniProt Q02223 1-54)
T2 construct: also called BCMA fc fusion protein (R&D Systems, cat #193-BC-050); recombinant BCMA-Fc; not shown: Fc portion of the bought fusion protein
T2 sequence (looked up): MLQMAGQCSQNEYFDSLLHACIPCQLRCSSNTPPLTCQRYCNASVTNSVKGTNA

B1: BCMA-12 CAR (139111) (other)
chain: EVQLLESGGGLVQPGGSLRLSCAVSGFALSNHGMSWVRRAPGKGLEWVSGIVYSGSTYYAASVKGRFTISRDNSRNTLYLQMNSLRPEDTAIYYCSAHGGESDVWGQGTTVTVSSASGGGGSGGRASGGGGSDIVMTQTPLSLSVTPGQPASISCKSSQSLLRNDGKTPLYWYLQKAGQPPQLLIYEVSNRFSGVPDRFSGSGSGTDFTLKISRVEAEDVGAYYCMQNIQFPSFGGGTKLEIKTTTPAPRPPTPAPTIASQPLSLRPEACRPAAGGAVHTRGLDFACDIYIWAPLAGTCGVLLLSLVITLYCKRGRKKLLYIFKQPFMRPVQTTQEEDGCSCRFPEEEEGGCELRVKFSRSADAPAYKQGQNQLYNELNLGRREEYDVLDKRRGRDPEMGGKPRRKNPQEGLYNELQKDKMAEAYSEIGMKGERRRGKGHDGLYQGLSTATKDTYDALHMQALPPR
notes: also called HU13-58ZB
B2: BCMA-9 CAR (139108) (other)
chain: QVQLVESGGGLVKPGGSLRLSCAASGFTFSDYYMSWIRQAPGKGLEWVSYISSSGSTIYYADSVKGRFTISRDNAKNSLYLQMNSLRAEDTAVYYCARESGDGMDVWGQGTTVTVSSASGGGGSGGRASGGGGSDIQMTQSPSSLSASVGDRVTITCRASQSISSYLNWYQQKPGKAPKLLIYAASSLQSGVPSRFSGSGSGTDFTLTISSLQPEDFATYYCQQSYTLAFGQGTKVDIKTTTPAPRPPTPAPTIASQPLSLRPEACRPAAGGAVHTRGLDFACDIYIWAPLAGTCGVLLLSLVITLYCKRGRKKLLYIFKQPFMRPVQTTQEEDGCSCRFPEEEEGGCELRVKFSRSADAPAYKQGQNQLYNELNLGRREEYDVLDKRRGRDPEMGGKPRRKNPQEGLYNELQKDKMAEAYSEIGMKGERRRGKGHDGLYQGLSTATKDTYDALHMQALPPR
notes: also called OG62-93QB

Legend:
[1] = biological target: T1, human BCMA (B-cell maturation antigen) …; assay: cell-based or functional assay
[2] = biological target: T2, BCMA-Fc antigen (R&D Systems); assay: flow cytometry; BCMA-Fc staining of CAR-transduced JNL cells
Method: Jurkat-NFAT-luciferase (JNL) cells transduced with BCMA CAR constructs were evaluated for activation in response to BCMA-expressing target cell lines. Small-scale viral supernatant samples were generated in HEK293T cells for transduction of JNL cells. On Day 3 following transduction, BCMA CAR-transduced JNL cells were incubated with target cells at an effector-to-target (E:T) ratio of 6:1. Target cell lines were: K562-BCMA (engineered to stably express BCMA), K562 (parental line), and BCMA positive multiple myeloma cell lines, NCI-H929 and RPMI 8226. JNL activation was measured using Bright-Glo substrate (Promega) on Day 4. CAR expression on transduced JNL was assessed on Day 7 with BCMA-Fc antigen and Biotin-Protein L reagent (Table 21).

Binder | JNL binding assay, ratio to K562; K562-BCMA [1] | JNL binding assay, ratio to K562; NCI-H929 [1] | JNL binding assay, ratio to K562; RPMI 8226 [1] | Proliferation CD3, ratio to no target; K562-BCMA [1] | Proliferation CD3, ratio to no target; KMS11-luc [1] | Proliferation CD3, ratio to no target; NCI-H929 [1] | Proliferation CD3, ratio to no target; RPMI 8226 [1] | Proliferation CD4, ratio to no target; K562-BCMA [1] | Proliferation CD4, ratio to no target; KMS11-luc [1] | Proliferation CD4, ratio to no target; NCI-H929 [1] | Proliferation CD4, ratio to no target; RPMI 8226 [1] | Proliferation CD8, ratio to no target; K562-BCMA [1] | Proliferation CD8, ratio to no target; KMS11-luc [1] | Proliferation CD8, ratio to no target; NCI-H929 [1] | Proliferation CD8, ratio to no target; RPMI 8226 [1] | % CAR+ (BCMA-Fc detection) [2]
B1 | 3.17 ratio | 2.78 ratio | 3.36 ratio | 2.9 ratio | 2.76 ratio | 2.98 ratio | 3.27 ratio | 3.42 ratio | 2.94 ratio | 3.41 ratio | 3.66 ratio | 1.51 ratio | 2.11 ratio | 1.76 ratio | 2.12 ratio | 23.4%
B2 | 1.59 ratio | 1.99 ratio | 1.54 ratio | 1.51 ratio | 1.66 ratio | 4.63 ratio | 2.5 ratio | 1.59 ratio | 1.49 ratio | 4.45 ratio | 2.24 ratio | 1.43 ratio | 1.83 ratio | 4.79 ratio | 2.76 ratio | 54.7%
